Results reported in patent US20210238260A1 (published 2021).
Positions count from the first letter of the chain named. In names and notes the source's numbering stands.

T1: Factor VIIIa (FVIIIa), from recombinant FVIII (Kogenate FS; Bayer healthcare) activated with alpha-thrombin (UniProt P00451 20-2351)
T1 sequence (looked up): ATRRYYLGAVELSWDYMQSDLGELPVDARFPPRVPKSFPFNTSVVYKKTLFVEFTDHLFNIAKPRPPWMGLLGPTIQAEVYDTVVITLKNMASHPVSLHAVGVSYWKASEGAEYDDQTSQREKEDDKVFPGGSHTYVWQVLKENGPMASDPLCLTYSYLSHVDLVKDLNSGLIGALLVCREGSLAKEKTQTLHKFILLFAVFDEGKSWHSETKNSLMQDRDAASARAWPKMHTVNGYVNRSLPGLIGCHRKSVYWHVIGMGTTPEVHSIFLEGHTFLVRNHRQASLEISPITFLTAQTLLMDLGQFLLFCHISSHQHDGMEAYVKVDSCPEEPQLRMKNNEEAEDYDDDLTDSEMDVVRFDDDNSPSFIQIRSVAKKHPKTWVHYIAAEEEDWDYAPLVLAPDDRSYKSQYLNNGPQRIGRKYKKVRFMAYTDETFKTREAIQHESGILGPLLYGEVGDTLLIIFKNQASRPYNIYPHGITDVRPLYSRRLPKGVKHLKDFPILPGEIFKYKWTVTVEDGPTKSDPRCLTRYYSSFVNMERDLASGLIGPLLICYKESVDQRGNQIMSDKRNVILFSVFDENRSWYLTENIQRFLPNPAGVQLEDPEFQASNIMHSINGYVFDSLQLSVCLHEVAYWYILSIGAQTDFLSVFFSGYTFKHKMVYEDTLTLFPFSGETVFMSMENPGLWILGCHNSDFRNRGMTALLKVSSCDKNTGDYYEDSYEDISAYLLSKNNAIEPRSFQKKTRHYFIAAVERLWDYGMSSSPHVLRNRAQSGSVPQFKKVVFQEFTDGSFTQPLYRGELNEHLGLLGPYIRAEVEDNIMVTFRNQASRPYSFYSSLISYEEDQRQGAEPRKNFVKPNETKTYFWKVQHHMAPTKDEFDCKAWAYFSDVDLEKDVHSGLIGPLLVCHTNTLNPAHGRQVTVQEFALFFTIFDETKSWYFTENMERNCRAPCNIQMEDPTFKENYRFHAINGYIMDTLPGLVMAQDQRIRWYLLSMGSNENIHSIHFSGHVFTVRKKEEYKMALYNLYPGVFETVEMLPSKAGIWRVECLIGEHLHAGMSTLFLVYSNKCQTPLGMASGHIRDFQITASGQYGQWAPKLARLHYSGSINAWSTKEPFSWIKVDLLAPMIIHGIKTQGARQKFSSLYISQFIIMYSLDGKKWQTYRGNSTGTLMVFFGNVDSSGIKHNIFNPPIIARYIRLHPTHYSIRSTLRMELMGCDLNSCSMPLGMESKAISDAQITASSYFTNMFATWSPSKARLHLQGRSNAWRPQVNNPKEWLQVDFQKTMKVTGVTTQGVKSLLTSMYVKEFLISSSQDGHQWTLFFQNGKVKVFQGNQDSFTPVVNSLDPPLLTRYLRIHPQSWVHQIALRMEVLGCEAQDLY

B1: FIXa-R318Y/R403E/E410N (enzyme)
chain 1: YNSGKLEEFVQGNLERECMEEKCSFEEAREVFENTERTTEFWKQYVDGDQCESNPCLNGGSCKDDINSYECWCPFGFEGKNCELDVTCNIKNGRCEQFCKNSADNKVVCSCTEGYRLAENQKSCEPAVPFPCGRVSVSQTSKLTR
chain 2: VVGGEDAKPGQFPWQVVLNGKVDAFCGGSIVNEKWIVTAAHCVETGVKITVVAGEHNIEETEHTEQKRNVIRIIPHHNYNAAINKYNHDIALLELDEPLVLNSYVTPICIADKEYTNIFLKFGSGYVSGWGRVFHKGYSALVLQYLRVPLVDRATCLRSTKFTIYNNMFCAGFHEGGRDSCQGDSGGPHVTEVEGTSFLTGIISWGEECAMKGKYGIYTKVSEYVNWIKNKTKLT
notes: also called R150Y/R233E/E240N (chymotrypsin numbering)
B2: FIXa-K228N/R318Y/E410N (enzyme)
chain 1: B1 chain 1
chain 2: B1 chain 2 with K48N, E223R
notes: also called K63N/R150Y/E240N (chymotrypsin numbering)
B3: FIXa-D203N/F205T/R338E/R403E (enzyme)
chain 1: B1 chain 1
chain 2: B1 chain 2 with D23N, F25T, Y138R, R158E, N230E
notes: also called D39N/F41T/R170E/R233E (chymotrypsin numbering)
B4: FIXa-K228N/R338E/R403E (enzyme)
chain 1: B1 chain 1
chain 2: B1 chain 2 with K48N, Y138R, R158E, N230E
notes: also called K63N/R170E/R233E (chymotrypsin numbering)
B5: FIXa-D203N/F205T/R318Y (enzyme)
chain 1: B1 chain 1
chain 2: B1 chain 2 with D23N, F25T, E223R, N230E
notes: also called D39N/F41T/R150Y (chymotrypsin numbering)
B6: FIXa-D203N/F205T/R338A (enzyme)
chain 1: B1 chain 1
chain 2: B1 chain 2 with D23N, F25T, Y138R, R158A, E223R, N230E
notes: also called D39N/F41T/R170A (chymotrypsin numbering)
B7: FIXa-D203N/F205T/E410N (enzyme)
chain 1: B1 chain 1
chain 2: B1 chain 2 with D23N, F25T, Y138R, E223R
notes: also called D39N/F41T/E240N (chymotrypsin numbering)
B8: FIXa-D104N/K106S/R318Y/R338E/E410N (enzyme)
chain 1: B1 chain 1 with D104N, K106S
chain 2: B1 chain 2 with R158E, E223R
notes: also called D104N/K106S/R318Y/E410N/R338E
B9: FIXa-D203N/F205T/K228N (enzyme)
chain 1: B1 chain 1
chain 2: B1 chain 2 with D23N, F25T, K48N, Y138R, E223R, N230E
notes: also called D39N/F41T/K63N (chymotrypsin numbering)
B10: FIXa-D203N/F205T/R338E (enzyme)
chain 1: B1 chain 1
chain 2: B1 chain 2 with D23N, F25T, Y138R, R158E, E223R, N230E
notes: also called D39N/F41T/R170E (chymotrypsin numbering)
B11: FIXa-Y259F/K265T/Y345T (enzyme)
chain 1: B1 chain 1
chain 2: B1 chain 2 with Y79F, K85T, Y138R, Y165T, E223R, N230E
notes: also called Y94F/K98T/Y177T
B12: FIXa-D104N/K106S/I251S/R318Y/R338E/E410N (enzyme)
chain 1: B1 chain 1 with D104N, K106S
chain 2: B1 chain 2 with I71S, R158E, E223R
B13: FIXa-R318Y/R338E/E410S (enzyme)
chain 1: B1 chain 1
chain 2: B1 chain 2 with R158E, E223R, N230S
notes: also called R150Y/R170E/E240S
B14: FIXa-I251S/R318Y/R338E/E410N (enzyme)
chain 1: B1 chain 1
chain 2: B1 chain 2 with I71S, R158E, E223R
notes: also called I86S/R150Y/R170E/E240N; I251S/R318Y/E410N/R338E
B15: FIXa-A103N/N105S/K247N/N249S/R318Y/R338E/R403E/E410N (enzyme)
chain 1: B1 chain 1 with A103N, N105S
chain 2: B1 chain 2 with K67N, N69S, R158E
B16: FIXa-K247N/N249S/R318Y/R338E/E410N (enzyme)
chain 1: B1 chain 1
chain 2: B1 chain 2 with K67N, N69S, R158E, E223R
notes: also called K82N/N84S/R150Y/R170E/E240N
B17: FIXa-D104N/K106S/Y155F/K228N/K247N/N249S (enzyme)
chain 1: B1 chain 1 with D104N, K106S
chain 2: B1 chain 2 with K48N, K67N, N69S, Y138R, E223R, N230E
B18: FIXa-R318Y/R338E/T412A (enzyme)
chain 1: B1 chain 1
chain 2: B1 chain 2 with R158E, E223R, N230E, T232A
notes: also called R150Y/R170E/T242A
B19: FIXa-R318Y/R338E/E410N/T412V (enzyme)
chain 1: B1 chain 1
chain 2: B1 chain 2 with R158E, E223R, T232V
notes: also called R150Y/R170E/E240N/T242V
B20: FIXa-Y155F/N260S/R318Y/R338E/R403E/E410N (enzyme)
chain 1: B1 chain 1
chain 2: B1 chain 2 with N80S, R158E
B21: FIXa-Y155F/K247N/N249S/R318Y/R338E/E410N (enzyme)
chain 1: B1 chain 1
chain 2: B1 chain 2 with K67N, N69S, R158E, E223R
B22: FIXa-K247N/N249S/R318Y/R338E/R403E/E410N (enzyme)
chain 1: B1 chain 1
chain 2: B1 chain 2 with K67N, N69S, R158E
notes: also called K82N/N84S/R150Y/R170E/R233E/E240N
B23: FIXa-D104N/K106S/K228N/K247N/N249S (enzyme)
chain 1: B1 chain 1 with D104N, K106S
chain 2: B1 chain 2 with K48N, K67N, N69S, Y138R, E223R, N230E
B24: FIXa variant R318Y/R338E/R403E/E410N/T412V (enzyme)
light: B1 chain 1
heavy: B1 chain 2 with R158E, T232V
notes: also called R150Y/R170E/R233E/E240N/T242V
B25: FIXa variant Y155F/K247N/N249S/N260S (enzyme)
light: B1 chain 1
heavy: B1 chain 2 with K67N, N69S, N80S, Y138R, E223R, N230E
B26: FIXa variant Y155F/K247N/N249S/R318Y/R338E/E410N (enzyme)
light: B1 chain 1
heavy: B1 chain 2 with K67N, N69S, R158E, E223R
B27: FIXa variant R318Y/R338E/T343R/N346D/R403E/E410N (enzyme)
light: B1 chain 1
heavy: B1 chain 2 with R158E, T163R, N166D
notes: also called R150Y/R170E/T175R/N178D/R233E/E240N
B28: FIXa variant R318Y/R338E/T343R/R403E/E410N (enzyme)
light: B1 chain 1
heavy: B1 chain 2 with R158E, T163R
notes: also called R150Y/R170E/T175R/R233E/E240N
B29: FIXa variant Y155F/K228N/R318Y/R338E/R403E/E410N (enzyme)
light: B1 chain 1
heavy: B1 chain 2 with K48N, R158E
B30: FIXa variant R318Y/R338E/T343R/N346Y/R403E/E410N (enzyme)
light: B1 chain 1
heavy: B1 chain 2 with R158E, T163R, N166Y
notes: also called R150Y/R170E/T175R/N178Y/R233E/E240N
B31: FIXa variant R318Y/R338E/R403E/E410S (enzyme)
light: B1 chain 1
heavy: B1 chain 2 with R158E, N230S
notes: also called R150Y/R170E/R233E/E240S
B32: FIXa variant Y259F/K265T/Y345T (enzyme)
light: B1 chain 1
heavy: B1 chain 2 with Y79F, K85T, Y138R, Y165T, E223R, N230E
notes: also called Y94F/K98T/Y177T

The binders below were run against T2, antithrombin III (plasma purified human AT-III), used as the AT-III/unfractionated heparin complex (human, UniProt P01008 33-464) (assay: K0.5: AT-III/UFH titrated against FIXa, 10 s, residual cleavage of Mesyl-D-CHG-Gly-Arg-AMC).
T2 construct: also called AT-III/UFH

Row | Binder | IC50
1 | B1 | 7070 nM
2 | B2 | 475 nM
3 | B3 | 1520 nM
4 | B4 | 1680 nM
5 | B5 | 7230 nM
6 | B6 | 423 nM
7 | B7 | 377 nM
8 | B8 | 6330 nM
9 | B9 | 822 nM
10 | B10 | 1170 nM

Each binder was assayed against T3, plasma purified human AT-III (antithrombin III) (human, UniProt P01008 33-464) (assay: K0.5: AT-III/UFH titrated on FIXa, residual activity on fluorogenic substrate).
T3 construct: also called AT-III/UFH (in complex with unfractionated heparin)

Row | Binder | IC50
11 | B11 | 6 nM
12 | B12 | 8980 nM
13 | B13 | 5400 nM
14 | B14 | 5860 nM
15 | B15 | 2500 nM
16 | B16 | 1510 nM
17 | B17 | 32 nM
18 | B18 | 7660 nM
19 | B19 | 4870 nM
20 | B20 | 9700 nM
21 | B21 | 3880 nM
22 | B22 | 8080 nM
23 | B23 | 41 nM

What follows are binders tested against T1, Factor VIIIa (FVIIIa), from recombinant … (assay: ratio of KD-app of Catalyst Biosciences WT FIXa to KD-app of the variant, same Xase assay).
Text: (§1) The activity of alpha-thrombin was then quenched by the addition of a highly specific thrombin inhibitor, hirudin, prior to initiating the assay.

Row | Binder | KD-WT/KD-mut
24 | B24 | 1.7 fold
25 | B25 | 0.6 fold
26 | B26 | 12.8 fold
27 | B27 | 1.3 fold
28 | B28 | 6.6 fold
29 | B29 | 3.1 fold
30 | B30 | 6.1 fold
31 | B31 | 1.8 fold
32 | B32 | 0.8 fold

These binders were tested against T1, Factor VIIIa (FVIIIa), from recombinant … (assay: apparent functional KD (KD-app): FX activation rate vs FVIIIa titration, fluorogenic Xase assay with PC/PS vesicles and Ca2+).
Text: as §1

Row | Binder | Kd
33 | B24 | 55 nM
34 | B25 | 167 nM
35 | B26 | 7.4 nM
36 | B27 | 76.2 nM
37 | B28 | 14.5 nM
38 | B29 | 31.2 nM
39 | B30 | 15.6 nM
40 | B31 | 53.1 nM
41 | B32 | 115 nM
